The values that follow come from US20020142359A1 (AstraZeneca / MedImmune, published 2002).

Positions count from the first letter of the chain named. Names may count otherwise.

In assay [1] the target is CEA on LS174T colo-rectal tumour cells (UniProt P06731). The assay is described as follows: cell-based or functional assay.
The target in assay [2] is T1, CEA (Carcinoembryonic antigen), purified antigen (UniProt P06731 35-685, limits assumed).
T1 construct: Purified CEA, 50 ng per well in the CEA ELISA; also called native CEA; untreated CEA
T1 sequence (looked up): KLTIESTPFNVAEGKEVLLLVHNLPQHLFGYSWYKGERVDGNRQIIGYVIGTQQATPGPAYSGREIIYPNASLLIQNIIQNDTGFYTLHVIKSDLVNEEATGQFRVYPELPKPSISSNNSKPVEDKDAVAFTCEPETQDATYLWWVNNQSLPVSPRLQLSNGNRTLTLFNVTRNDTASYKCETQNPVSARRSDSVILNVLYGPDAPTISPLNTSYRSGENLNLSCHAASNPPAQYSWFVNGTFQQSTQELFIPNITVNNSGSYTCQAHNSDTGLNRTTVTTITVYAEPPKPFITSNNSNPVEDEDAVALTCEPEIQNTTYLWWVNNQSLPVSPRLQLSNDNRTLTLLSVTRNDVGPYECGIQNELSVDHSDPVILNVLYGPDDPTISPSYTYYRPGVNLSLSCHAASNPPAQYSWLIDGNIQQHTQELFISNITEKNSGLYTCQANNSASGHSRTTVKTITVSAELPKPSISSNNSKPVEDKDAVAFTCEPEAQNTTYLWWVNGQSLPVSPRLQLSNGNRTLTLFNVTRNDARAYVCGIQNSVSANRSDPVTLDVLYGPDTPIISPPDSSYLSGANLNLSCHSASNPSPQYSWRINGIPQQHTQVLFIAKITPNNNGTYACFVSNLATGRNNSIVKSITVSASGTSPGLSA
The assay can be described thus: CEA ELISA on media from NS0 clones, detected with anti-human kappa peroxidase conjugate.
Excerpt: Media from wells containing single viable clones was taken for testing and replaced with fresh media (containing G418).

Assay [3] has as its target T1, CEA (Carcinoembryonic antigen), …. The assay can be described thus: EIA of hybridoma supernatants against native CEA; line 806.077 was cloned from one of the positive wells.
Assay [4] shares this target. The assay can be described thus: CEA ELISA (50 ng CEA per well) on NS0 culture supernatants, detected with HRPO anti-human kappa. On the procedure: (§1) For the CEA ELISA each well of a 96 well immunoplate (NUNC MAXISORB™) was coated with 50 ng CEA in 50 mM carbonate/bicarbonate coating buffer pH9.6 (buffer capsules—Sigma C3041) and incubated at 4° C. overnight. The plate was washed three times with PBS+0.05% Tween 20 and then blocked 150 μl per well of 1% BSA in PBS +0.05% Tween 20 for 1 hour at room temperature. The plate was washed as previously described, 100 μl of test sample added per well and incubated at room temperature for 2 hours. Again the plate was washed three times with PBS+0.05% Tween 20, 100 μl per well of a 1/500 dilution of HRPO-labelled goat anti-human kappa antibody (Sigma A 7164) was added, in 1% BSA in PBS-Tween 20 and incubated at room temperature on a rocking platform for at least 1 hour. The plate was washed as before and then once more with PBS. To detect binding add 100 μl per well developing solution (one capsule of phosphate-citrate buffer—Sigma P4922—dissolved in 100 mls H₂O to which is added one 30 mg tablet o-phenylenediamine dihydrochloride—Sigma P8412) and incubated for up to 15 minutes. The reaction was stopped by adding 75 μl 2M H₂SO₄, and absorbance read at 490 nm.

For assay [5] the target is unchanged. The assay can be described thus: CEA ELISA on NS0 culture supernatants (Example 39). On the procedure: as §1
(§2) As before, the human F(ab′)₂ antibody fragment was then purified from the culture supernatant as described in Example 102.

For assay [6] the target is unchanged. The assay can be described thus: CEA ELISA on NS0 culture supernatants (Example 41). On the procedure:
as §1, §2

Assay [7] shares this target. The assay can be described thus: CEA ELISA on NS0 culture supernatants (Example 43). On the procedure:
as §1, §2
On the technique in general: An ELISA detects its analyte on a solid surface through an enzyme-linked reagent.

Assay [8] has the same target. The assay is described as follows: CEA ELISA on NS0 culture supernatants (Example 45). On the procedure: as §1, §2
Assay [9] has the same target. The assay is described as follows: CEA ELISA on NS0 culture supernatants (Example 42). The procedure: as §1, §2
The target is the same in assay [10]. The assay is described as follows: CEA ELISA on NS0 culture supernatants (Example 47). On the procedure:
as §1, §2

The target is the same in assay [11]. The assay is described as follows: CEA ELISA on NS0 culture supernatants (Example 14). The procedure:
as §1

For the molecule “human B7.1-murine A5B7 F(ab')2 fusion protein (AB7)”, in assay [1], the [3H] thymidine incorporation by T cells on anti-CD3 coated wells (T cells + LS174T/fusion protein) was 41800 cpm; the [3H] thymidine uptake, fold over no co-stimulation is greater than 11 fold; the [3H] thymidine uptake, fold over tumour cells alone is greater than 3 fold.

B1: pro-[A248S,G251T,D253K]HCPB-linker-F(ab')2(humanised 806.077) (other)
heavy: HHGGEHFEGEKVFRVNVEDENHINIIRELASTTQIDFWKPDSVTQIKPHSTVDFRVKAEDTVTVENVLKQNELQYKVLISNLRNVVEAQFDSRVRATGHSYEKYNKWETIEAWTQQVATENPALISRSVIGTTFEGRAIYLLKVGKAGQNKPAIFMDCGFHAREWISPAFCQWFVREAVRTYGREIQVTELLDKLDFYVLPVLNIDGYIYTWTKSRFWRKTRSTHTGSSCIGTDPNRNFDAGWCEIGASRNPCDETYCGPAAESEKETKALADFIRNKLSSIKAYLTIHSYSQMMIYPYSYAYKLGENNAELNALAKATVKELASLHGTKYTYGPGATTIYPSAGTSKDWAYDQGIRYSFTFELRDTGRYGFLLPESQIRATCEETFLAIKYVASYVLEHLYGGGSGGGSGGGSEVQLQQSGPGLVRPSQTLSLTCTASGFNIKDNYMHWVRQPPGRGLEWIGWIDPENGDTEYAPKFRGRVTMLADTSKNQFSLRLSSVTAADTAVYYCHVLIYAGYLAMDYWGQGTLVTVSSASTKGPSVFPLAPCSRSTSGGTAALGCLVKDYFPEPVTVSWNSGALTSGVHTFPAVLQSSGLYSLSSVVTVPSSSLGTQTYTCNVNHKPSNTKVDKRVELKTPLGDTTHTCPRCPEPKSCDTPPPCPRCPEPKSCDTPPPCPRCPEPKSCDTPPPCPRCPAPELLGG
light: DIQMTQSPSSLSASVGDRVTITCSASSSVTYMHWYQQKPGKAPKLWIYSTSNLASGVPSRFSGSGSGTDYTFTISSLQPEDIATYYCQQRSTYPLTFGQGTKLEIKRTVAAPSVFIFPPSDEQLKSGTASVVCLLNNFYPREAKVQWKVDNALQSGNSQESVTEQDSKDSTYSLSSTLTLSKADYEKHKVYACEVTHQGLSSPVTKSFNRGEC
notes: Antibody-enzyme fusion secreted by NS0 cells
For B1, the binding result in [2] is reported as “binds”.

B2: 806.077 antibody (antibody, V domains shown)
VH: EVQLQQSGAELVRSGASVKLSCTASGFNIKDNYMHWVKQRPEQGLEWIAWIDPENGDTEYAPKFRGKATLTADSSSNTAYLHLSSLTSEDTAVYYCHVLIYAGYLAMDYWGQGTSVAVSS
VL: DIELTQSPAIMSASPGEKVTITCSASSSVTYMHWFQQKPGTSPKLWIYSTSNLASGVPARFSGSGSGTSYSLTISRMEAEDAATYYCQQRSTYPLTFGAGTKLELKR
notes: The cDNA primers hybridise to murine IgG1 CH1 and murine kappa constant regions
In the case of B2, in assay [3], the binding result is on record as “binds”.

B3: humanised 806.077 HuVH1/HuVK1 HuIgG2 F(ab')2 (Initial humanised antibody) (antibody, V domains shown)
VH: EVQLQQSGPGLVRPSQTLSLTCTASGFNIKDNYMHWVRQPPGRGLEWIGWIDPENGDTEYAPKFRGRVTMLADTSKNQFSLRLSSVTAADTAVYYCHVLIYAGYLAMDYWGQGTLVTVSS
VL: DIQMTQSPSSLSASVGDRVTITCSASSSVTYMHWYQQKPGKAPKLLIYSTSNLASGVPSRFSGSGSGTDYTFTISSLQPEDIATYYCQQRSTYPLTFGQGTKLEIKR
notes: F(ab')2 fragment secreted by NS0 cells and tested as culture supernatant
In the case of B3, in assay [4], the binding result was “binds”.

B4: humanised 806.077 HuVH1/HuVK1 HuIgG1 F(ab')2 (antibody, V domains shown)
VH: B3 VH
VL: B3 VL
notes: F(ab')2 fragment from NS0 supernatant; also called HuVH1-HuIgG1 + HuVK1-HuCK
On to B4, for which the binding result in assay [5] was “binds”.

B5: humanised 806.077 HuVH1/HuVK1 HuIgG3 F(ab')2 (antibody, V domains shown)
VH: B3 VH
VL: B3 VL
notes: F(ab')2 fragment from NS0 supernatant; also called HuVH1-HuIgG3 + HuVK1-HuCK
Turning to B5, the binding result in assay [6] is reported as “binds”.

B6: humanised 806.077 HuVH1/HuVK3 HuIgG2 F(ab')2 (antibody, V domains shown)
VH: B3 VH
VL: B3 VL with D1Q, Q3V, M4L
notes: F(ab')2 fragment from NS0 supernatant
As for B6, the binding result in assay [7] is reported as “binds”.

B7: humanised 806.077 HuVH1/HuVK4 HuIgG1 F(ab')2 (antibody, V domains shown)
VH: B3 VH
VL: B3 VL with L46W
notes: F(ab')2 fragment from NS0 supernatant; also called HuVH1-HuIgG1 + HuVK4-HuCK
On to B7, for which, in assay [8], the binding result is given as “binds”.

B8: humanised 806.077 HuVH1/HuVK3 HuIgG1 F(ab')2 (antibody, V domains shown)
VH: B3 VH
VL: B3 VL with D1Q, Q3V, M4L
notes: F(ab')2 fragment from NS0 supernatant; also called HuVH1-HuIgG1 + HuVK3-HuCK
B8: the binding result in assay [9] is recorded as “binds”.

B9: humanised 806.077 HuVH1/HuVK4 HuIgG3 F(ab')2 (antibody, V domains shown)
VH: B3 VH
VL: B3 VL with L46W
notes: F(ab')2 fragment from NS0 supernatant; also called HuVH1-HuIgG3 + HuVK4-HuCK
As for B9, the binding result in assay [10] is “binds”.

B10: humanised 806.077 HuVH1/HuVK4 HuIgG2 F(ab')2 (antibody, V domains shown)
VH: B3 VH
VL: B3 VL with L46W
notes: as for B6
Take B10: the binding result in assay [11] is “binds”.
